“Also recorded” adds a separate entry of the source.
Key:
Cdk5/P25 [1] = molecular target: T1, Cdk5/P25 (Homo sapiens, UniProt Q00535); test: Cdk5/P25 kinase assay after pre-incubation with β-tubulin; format: biochemical
Description: Tubulin polymerization was performed as detailed in a previous report (Hou et al., J. Biol. Chem., 282(26), 18666-18670, 2007). Briefly, active kinase Cdk5/P35 (2 ng/μL) or active Cdk5/P25 (1 ng/μL) were incubated with β-tubulin (enzyme: tubulin at 1:100) in the PEM buffer (80 mM PIPES, 2 mM MgCl2, 1 mM EGTA PH 7.0) supplemented with 1 mM GTP at 35° C. for 45 minutes. Following the incubation, Cdk5 kinase assays were performed with or without the addition of 0.45 μM or 0.90 μM P5.
To further explore this possibility, β-tubulin (which is enriched in neurons) was used to perform a study in vitro to mimic P35 interactions in cells. Cdk5/P35 and Cdk5/P25 active kinases were pre-incubated with β-tubulin (Cdk5 kinase:tubulin=1:100) respectively at 35° C. for 45 minutes to 1 hour under conditions that would promote tubulin polymerization, followed by a Cdk5 kinase assay with/without the addition of P5. […] Cdk5/P25 activity, however, was inhibited 60% after pre-incubation at the lower P5 concentration (0.45 μM) (FIG. 9B, lane 4 compared with lane 1) (p<0.01). […] On the other hand, P25, lacking the P10 domain, fails to bind these proteins, and P5 readily binds with Cdk5 in the Cdk5/P25 complex to inhibit activity.

[2] = system: Cdc2, Cdk2, Cdk4, and Cdk6; test: Kinase assay of cell cycle Cdk immunoprecipitates from HEK293 cells infected with P5-myc or treated with roscovitine; format: cell-based, human; details: HEK293 cells infected with P5-myc or treated with 20 μM roscovitine
Description: Briefly, 7 days in culture (7 DIC) primary rat cortical neurons were infected with P25, P35, Cdk5 wild-type, dominant negative-Cdk5 and P5 using the lentiviral gene delivery as described earlier. Cdk5 was immunoprecipitated using the polyclonal C8 antibody overnight at 4° C. and immunoglobulin isolated using Protein A sepharose beads for 2 hours at 4° C. Immunoprecipitates were washed three times with lysis buffer and then once with 1× kinase buffer containing 20 mM Tris-Cl pH 7.4, 1 mM EDTA, 1 mM EGTA, 10 mM MgCl2, 10 mM sodium fluoride and 1 mM sodium orthovanadate. Endogenous Cdks were immunoprecipitated from HEK 293 cells using their respective antibodies and treated as above. […] ATP with 20 μg of histone H1 as the substrate. Phosphorylation was performed in a final volume of […] incubated at 30° C. for 60 minutes, stopped by the addition of 10% SDS sample buffer and heating at 95° C. for 5 minutes. Samples were separated by SDS-PAGE, gels were stained with Coomassie, destained, dried and exposed to autoradiography. In pad assays, 25 μl aliquots of the incubation mixture were placed on a Whatman p80 paper square, washed and dried and placed in a scintillation vial for counting.

Cdk5/P25 [3] = molecular target: T1, Cdk5/P25; test: In vitro kinase (pad) assay of active Cdk5/P25 with histone H1 as substrate; format: biochemical
Description: Kinase assays were performed as previously described (Veeranna, et al., J Neurosci 18(11), 4008-4021, 1998). Briefly, 7 days in culture (7 DIC) primary rat cortical neurons were infected with P25, P35, Cdk5 wild-type, dominant negative-Cdk5 and P5 using the lentiviral gene delivery as described earlier. Cdk5 was immunoprecipitated using the polyclonal C8 antibody overnight at 4° C. and immunoglobulin isolated using Protein A sepharose beads for 2 hours at 4° C. Immunoprecipitates were washed three times with lysis buffer and then once with 1× kinase buffer containing 20 mM Tris-Cl pH 7.4, 1 mM EDTA, 1 mM EGTA, 10 mM MgCl2, 10 mM sodium fluoride and 1 mM sodium orthovanadate. Endogenous Cdks were immunoprecipitated from HEK 293 cells using their respective antibodies and treated as above. Kinase assays were performed in the same buffer containing 1 mM DTT, 0.1 mM ATP and 0.185 MBq [γ-32P] ATP with 20 μg of histone H1 as the substrate. Phosphorylation was performed in a final volume of […] incubated at 30° C. for 60 minutes, stopped by the addition of 10% SDS sample buffer and heating at 95° C. for 5 minutes. Samples were separated by SDS-PAGE, gels were stained with Coomassie, destained, dried and exposed to autoradiography. In pad assays, 25 μl aliquots of the incubation mixture were placed on a Whatman p80 paper square, washed and dried and placed in a scintillation vial for counting.
These are GST-P1 (E211-A277 of SEQ ID NO: 16), 67 amino acid residues; GST-P2 (M237-A277), 41 residues; GST-P3 (E221-L267 of SEQ ID NO: 16), 47 residues; GST-P4 (E221-L249 of SEQ ID NO: 16), 29 residues and GST-P5 (K254-A277 of SEQ ID NO: 16) 24 residues. Each was incubated with active Cdk5/P25 in a kinase assay in vitro. […] FIG. 10 provides a comparison of P5 and CIP, relative to P35.
In a dose-dependent kinase assay the effective inhibitory concentration of P5 for both the Cdk5/P25 and Cdk5/P35 complexes was evaluated. His-P5 peptide was added at different concentrations to the in vitro assay containing 100 μM [γ32-P] ATP and histone H1. Inhibition increased progressively with increasing P5 concentration in both complexes (Compare FIGS. 2A, 2B with 2C, 2D).
P5, a 24 amino acid peptide derived from Cdk5 regulator p35, was modified by conjugating it with TAT PTD at the C-terminal end and with FITC (using a GGG linker) at the N-terminus to produce a fluorescent (FITC-labeled) TFP5 (SEQ ID NO: 2) peptide. In a dose-dependent kinase assay the effective inhibitory concentration of TFP5 for both the Cdk5/P25 and Cdk5/P35 complexes was evaluated. His-P5 peptide was added at different concentrations to the in vitro assay containing 100 μM [γ32-P] ATP and histone H1. […] Data represent means of four independent experiments with error bars representing SEM (*p≦0.05, **p≦0.001).

T1 sequence (Q00535 whole entry, species assumed): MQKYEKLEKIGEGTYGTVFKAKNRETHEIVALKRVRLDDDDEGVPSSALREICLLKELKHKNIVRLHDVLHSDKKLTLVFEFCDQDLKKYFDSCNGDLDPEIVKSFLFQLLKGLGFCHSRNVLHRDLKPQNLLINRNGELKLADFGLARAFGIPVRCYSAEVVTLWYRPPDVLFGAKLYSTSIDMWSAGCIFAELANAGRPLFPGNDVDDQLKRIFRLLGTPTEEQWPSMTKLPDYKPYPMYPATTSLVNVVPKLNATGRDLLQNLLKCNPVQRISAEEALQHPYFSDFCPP

Inhibition of Cdk5/P25 activity (Cdk5/P25 [3]; 0.7 μM P5): approximately 70%
Substance: P5: 24 residue peptide derived from Cdk5 activator P35 (K254-A277 of SEQ ID NO: 16); Cdk5 inhibitory peptide (KEAFWDRCLSVINLMSSKMLQINA; listed as Homo sapiens)
Inhibition of Cdk5/P25 activity with unpolymerized tubulin (no pre-incubation) (Cdk5/P25 [1]; 0.45 μM P5): P5 inhibits both kinases equally; also recorded: inhibited both Cdk5/P35 and Cdk5/P25 activities equally; also recorded: inhibited both complexes equally
Inhibition of Cdk5/P25 activity pre-incubated with polymerized tubulin (Cdk5/P25 [1]; 0.9 μM P5): both kinase complexes are inhibited equally; also recorded: both Cdk5 complexes were inhibited
Inhibition of endogenous cell cycle Cdk activity [2]: virtually no effect; also recorded: no inhibition in all cases; also recorded: unaffected by P5
Specificity of inhibition, Cdk5/P25 versus Cdk5/P35 (Cdk5/P25 [3]; in vitro (test tube) assay, 0.05 to 1.2 μM): equally inhibits each Cdk5 complex in a dose-dependent manner; also recorded: not specific for Cdk5/P25; also recorded: non-specific in vitro
Inhibition of Cdk5/P25 activity, comparison among peptides and CIP (Cdk5/P25 [3]; in vitro kinase assay, histone H1, FIG. 1): most effective inhibitor of Cdk5/P25; also recorded: more effective inhibitors of Cdk5/P25 activity than CIP

Source: patent US8597660B2, “Therapeutic approach to neurodegenerative disorders using a TFP5-peptide” (The United States of America, as represented by the …, priority 2010, dated 2013)
